Results published in the Human Domainome abundance scans (Beltran et al. 2025).

B1: Friend leukemia integration 1 transcription factor, residues 116 to 197; numbered along this chain, Q01543 (parent)
chain: NMTTNERRVIVPADPTLWTQEHVRQWLEWAIKEYSLMEIDTSFFQNMDGKELCKMNKEDFLRATTLYNTEVLLSHLSYLRES

Variants of: B1
Assay: abundance fitness (aPCA) (normalised: wild type 0, dead -1); higher = more abundant; growth selection in yeast, the domain comes from the species named
Settings: Homo sapiens

Abundance fitness of substitutions, site by site:
V11: H -0.032 | T 0.077 | W 0.198 | K 0.148 | D -0.004 | G 0.061 | F 0.166 | Q -0.024 | I -0.019 | N 0.094 | M 0.114 | R 0.232 | P 0.245 | C 0.217 | Y 0.031 | A 0.118 | E 0.015 | S 0.156
L17: I 0.024 | Q 0.037 | F -0.132 | W -0.203 | G 0.09 | N -0.289 | H 0.081 | T -0.011 | E 0.087 | K -0.085 | A 0.032 | S 0.008 | Y -0.096 | M -0.328 | R -0.042 | V 0.018 | D 0.224
P15: G -1.07 | K -1.09 | W -0.942 | H -0.892 | Q -0.543 | R -0.92 | S -0.565 | D -0.489 | I -0.028 | C -0.398 | Y -0.512 | T -0.42 | F -0.851 | V -0.056 | E -0.854
P12: H -0.085 | K -0.155 | S 0.079 | A -0.186 | I -0.193 | E 0.12 | Y -0.227 | V -0.447 | M -0.095 | T -0.021 | F -0.225 | N -0.021 | R -0.053 | D 0.095 | L -0.344 | G -0.039 | C -0.178
Q20: K 0.138 | S 0.047 | E -0.195 | R -0.077 | Y -0.109 | V -0.137 | T -0.029 | N 0.218 | D -0.054 | H 0.018 | G -0.057 | M 0.046 | A -0.126 | P -0.454 | L -0.289 | C -0.176 | W -0.123
W18: L -0.868 | R -0.563 | D -0.803 | S -0.981 | P -0.753 | K -1.18 | G -0.458 | A -0.879 | Q -0.891 | M -0.616 | F -0.719 | Y -0.759
A13: D 0.121 | W 0.023 | Y -0.072 | E 0.189 | M -0.036 | L -0.003 | I 0.048 | T 0.051 | G 0.123 | N 0.183 | F -0.081 | P 0.162 | R 0.023 | V 0.017 | H -0.179 | Q 0.106
T19: W -0.796 | N -0.263 | V -0.351 | S -0.113 | H 0.12 | P -1.02 | I -0.529 | A -0.309 | R -0.12 | E -0.597 | C -0.296 | G -0.194 | L -0.243 | F -0.79 | M -0.39 | K -0.12
D14: S -0.229 | K -0.564 | W -0.354 | R -0.701 | T -0.388 | I -0.467 | Y 0.011 | N -0.063 | A -0.237 | L -0.51 | P -0.415 | C -0.164 | E 0.096 | F -0.517 | M -0.421 | V -0.353 | Q 0.155
E21: C -0.371 | A 0.017 | D -0.084 | G -0.151
T16: A 0.086 | S -0.087 | C -0.357 | L -0.108 | E -0.159 | Q -0.306 | D -0.082 | G -0.142 | F 0 | W -0.021 | R -0.139 | N -0.22 | V -0.052 | I -0.036 | M -0.022 | K -0.057 | P -0.277 | Y -0.166
